Numbering of substitutions follows the chain as printed.
B1: PS3B1354 (bispecific antibody, human IgG1, lambda, L234A L235A)
heavy 1: QVQLQQSGPRLVRPSQTLSLTCAISGDSVFNNNAAWSWIRQSPSRGLEWLGRTYYRSKWLYDYAVSVKSRITVNPDTSRNQFTLQLNSVTPEDTALYYCARGYSSSFDYWGQGTLVTVSSASTKGPSVFPLAPSSKSTSGGTAALGCLVKDYFPEPVTVSWNSGALTSGVHTFPAVLQSSGLYSLSSVVTVPSSSLGTQTYICNVNHKPSNTKVDKKVEPKSCDKTHTCPPCPAPEAAGGPSVFLFPPKPKDTLMISRTPEVTCVVVSVSHEDPEVKFNWYVDGVEVHNAKTKPREEQYNSTYRVVSVLTVLHQDWLNGKEYKCKVSNKALPAPIEKTISKAKGQPREPQVYTLPPSREEMTKNQVSLTCLVKGFYPSDIAVEWESNGQPENNYKTTPPVLDSDGSFLLYSKLTVDKSRWQQGNVFSCSVMHEALHNHYTQKSLSLSPGK
light 1: QSALTQPASVSGSPGQSITISCTGTSSNIGTYKFVSWYQQHPDKAPKVLLYEVSKRPSGVSSRFSGSKSGNTASLTISGLQAEDQADYHCVSYAGSGTLLFGGGTKLTVLGQPKAAPSVTLFPPSSEELQANKATLVCLISDFYPGAVTVAWKADSSPVKAGVETTTPSKQSNNKYAASSYLSLTPEQWKSHRSYSCQVTHEGSTVEKTVAPTECS
heavy 2: EVQLVESGGGLVQPGGSLRLSCAASGFTFSSYAMSWVRQAPGKGLEWVSAISGGSGSTYYADSVKGRFTISRDNSKNTLYLQMNSLRAEDSAVYYCAKDGVGATPYYFDYWGQGTLVTVSSASTKGPSVFPLAPSSKSTSGGTAALGCLVKDYFPEPVTVSWNSGALTSGVHTFPAVLQSSGLYSLSSVVTVPSSSLGTQTYICNVNHKPSNTKVDKKVEPKSCDKTHTCPPCPAPEAAGGPSVFLFPPKPKDTLMISRTPEVTCVVVSVSHEDPEVKFNWYVDGVEVHNAKTKPREEQYNSTYRVVSVLTVLHQDWLNGKEYKCKVSNKALPAPIEKTISKAKGQPREPQVYTLPPSREEMTKNQVSLTCLVKGFYPSDIAVEWESNGQPENNYKTTPPVLDSDGSFFLYSRLTVDKSRWQQGNVFSCSVMHEALHNHYTQKSLSLSPGK
light 2: QSVLTQPPSVSAAPGQKVTISCSGSSSNIGNNYVSWYQQLPGTAPKLLIYDNNKRPSGIPDRFSGSKSGTSATLGITGLQTGDEADYYCGTWDSSLSAYVFGTGTKVTVLGQPKAAPSVTLFPPSSEELQANKATLVCLISDFYPGAVTVAWKADSSPVKAGVETTTPSKQSNNKYAASSYLSLTPEQWKSHRSYSCQVTHEGSTVEKTVAPTECS
B2: PSMB937 (bispecific antibody, human IgG1, lambda, L234A L235A)
heavy 1: QVQLQQSGPGLVKPSQTLSLTCAISGDSVFNNNAAWSWIRQSPSRGLEWLGRTYYRSKWLYDYAVSVKSRITINPDTSKNQFSLQLNSVTPEDTAVYYCARGYSSSFDYWGQGTLVTVSSASTKGPSVFPLAPSSKSTSGGTAALGCLVKDYFPEPVTVSWNSGALTSGVHTFPAVLQSSGLYSLSSVVTVPSSSLGTQTYICNVNHKPSNTKVDKKVEPKSCDKTHTCPPCPAPEAAGGPSVFLFPPKPKDTLMISRTPEVTCVVVSVSHEDPEVKFNWYVDGVEVHNAKTKPREEQYNSTYRVVSVLTVLHQDWLNGKEYKCKVSNKALPAPIEKTISKAKGQPREPQVYTLPPSREEMTKNQVSLTCLVKGFYPSDIAVEWESNGQPENNYKTTPPVLDSDGSFLLYSKLTVDKSRWQQGNVFSCSVMHEALHNHYTQKSLSLSPG
light 1: B1 light 1 with D43G, L49M, L50I, S62N, Q85E, H89Y
heavy 2: EVQLVESGGGLVQPGGSLRLSCAASGFTFSSYAMSWVRQAPGKGLEWVSAISGGSGSTYYADSVKGRFTISRDNSKNTLYLQMNSLRAEDSAVYYCAKDGVGATPYYFDYWGQGTLVTVSSASTKGPSVFPLAPSSKSTSGGTAALGCLVKDYFPEPVTVSWNSGALTSGVHTFPAVLQSSGLYSLSSVVTVPSSSLGTQTYICNVNHKPSNTKVDKKVEPKSCDKTHTCPPCPAPEAAGGPSVFLFPPKPKDTLMISRTPEVTCVVVSVSHEDPEVKFNWYVDGVEVHNAKTKPREEQYNSTYRVVSVLTVLHQDWLNGKEYKCKVSNKALPAPIEKTISKAKGQPREPQVYTLPPSREEMTKNQVSLTCLVKGFYPSDIAVEWESNGQPENNYKTTPPVLDSDGSFFLYSRLTVDKSRWQQGNVFSCSVMHEALHNHYTQKSLSLSPG
light 2: B1 light 2

Molecular target: Human PSMA on prostate cancer cell lines (C4-2B, 22RV1) (human, UniProt Q04609 1-750)
Sequence (Q04609 whole entry): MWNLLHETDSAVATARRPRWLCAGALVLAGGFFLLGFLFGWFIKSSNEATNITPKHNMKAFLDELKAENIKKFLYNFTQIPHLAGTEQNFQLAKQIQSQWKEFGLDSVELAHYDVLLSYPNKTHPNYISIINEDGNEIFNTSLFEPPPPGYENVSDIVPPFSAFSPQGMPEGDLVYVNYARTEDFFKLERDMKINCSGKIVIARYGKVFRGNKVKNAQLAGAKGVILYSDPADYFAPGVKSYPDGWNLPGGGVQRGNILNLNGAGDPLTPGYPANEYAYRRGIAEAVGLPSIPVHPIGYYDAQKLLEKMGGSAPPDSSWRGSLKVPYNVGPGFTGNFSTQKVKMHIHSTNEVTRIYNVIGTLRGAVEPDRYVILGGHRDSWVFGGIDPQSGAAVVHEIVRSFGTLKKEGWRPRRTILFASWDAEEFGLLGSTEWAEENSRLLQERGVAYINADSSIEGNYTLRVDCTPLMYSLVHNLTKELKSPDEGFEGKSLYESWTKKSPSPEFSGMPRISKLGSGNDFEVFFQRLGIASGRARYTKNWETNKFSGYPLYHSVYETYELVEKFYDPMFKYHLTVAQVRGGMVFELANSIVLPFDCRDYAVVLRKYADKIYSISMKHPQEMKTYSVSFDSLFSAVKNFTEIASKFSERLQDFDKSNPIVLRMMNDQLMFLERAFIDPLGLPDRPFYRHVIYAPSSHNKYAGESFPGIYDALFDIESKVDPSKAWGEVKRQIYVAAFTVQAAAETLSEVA
Assay: cell-based or functional assay

Row | Binder | Cytotoxicity (C4-2B cells, 3:1 E:T ratio, 5 Day) at 3.3 nM | Cytotoxicity (C4-2B cells, 3:1 E:T ratio, 5 Day) at 10 nM | Cytotoxicity (C4-2B cells, 3:1 E:T ratio, 5 Day) at 30 nM
1 | B1 | 30% | 72% | 84%
2 | B2 |  |  | 41%
